# Bridges are numbered along the chain shown (N, C = ends). [ ]: non-standard residue; d: D form. Gly(octyl) = CCCCCCCC[C@H](N)C(=O)O; Pro(4NHCOPhe) = not defined here; Cha = N[C@@H](CC1CCCCC1)C(=O)O
# T1: CathepsinG, from human neutrophils (human, UniProt P08311 21-244)
# T1 construct: purified natural enzyme, bought
# T1 sequence (looked up): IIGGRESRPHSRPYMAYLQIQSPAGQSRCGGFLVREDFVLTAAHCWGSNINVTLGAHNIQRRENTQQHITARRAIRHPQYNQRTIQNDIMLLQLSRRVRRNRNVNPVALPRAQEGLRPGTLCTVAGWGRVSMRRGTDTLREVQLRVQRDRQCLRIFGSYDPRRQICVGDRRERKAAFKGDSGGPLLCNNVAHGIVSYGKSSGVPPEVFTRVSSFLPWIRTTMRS
# T2: Chymase, from human skin (human, UniProt P23946 22-247)
# T2 construct: purified natural enzyme, bought
# T2 sequence (looked up): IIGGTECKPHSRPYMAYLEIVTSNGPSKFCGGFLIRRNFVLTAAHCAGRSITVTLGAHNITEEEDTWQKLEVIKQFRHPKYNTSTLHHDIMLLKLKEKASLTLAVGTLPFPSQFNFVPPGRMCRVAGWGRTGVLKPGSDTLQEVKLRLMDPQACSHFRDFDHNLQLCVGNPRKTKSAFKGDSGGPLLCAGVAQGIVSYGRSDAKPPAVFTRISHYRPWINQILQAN
# Columns and labels:
# Test in all cases: enzyme inhibition, pNA substrate
# [1] = molecular target: T3, Chymotrypsin, from human pancreas (human, UniProt P17538 19-263)
# T3 construct: purified natural enzyme, bought
# [2] = molecular target: T1, CathepsinG, from human neutrophils
# [3] = molecular target: T4, Urokinase from human urine (human, UniProt P00749 21-431, limits assumed)
# T4 construct: purified natural enzyme, bought
# [4] = molecular target: Thrombin, from Human Plasma, high activity (human, UniProt P00734 328-622)
# [5] = molecular target: T5, Tryptase, from human lung (human, UniProt Q15661 31-275, limits assumed)
# T5 construct: purified natural enzyme, bought
# Chymase, from human skin = molecular target: T2, Chymase, from human skin
# [6] = molecular target: T6, Coagulation Factor Xa, from uman plasma (human, UniProt P00742 41-179; P00742 235-488, limits assumed)
# T6 construct: purified natural enzyme, bought; also called FXa
# [7] = molecular target: T7, Trypsin, Iodination grade, from human pancreas (human, UniProt P07477 24-247)
# T7 construct: purified natural enzyme, bought
# T5 sequence (Q15661 31-275 limits assumed): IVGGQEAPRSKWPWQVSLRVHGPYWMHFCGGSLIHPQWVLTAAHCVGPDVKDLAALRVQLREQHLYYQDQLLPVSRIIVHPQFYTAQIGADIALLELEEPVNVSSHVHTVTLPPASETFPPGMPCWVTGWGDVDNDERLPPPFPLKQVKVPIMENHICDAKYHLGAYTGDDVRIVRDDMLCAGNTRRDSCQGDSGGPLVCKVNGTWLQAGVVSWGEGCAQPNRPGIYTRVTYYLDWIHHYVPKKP
# T3 sequence (P17538 19-263): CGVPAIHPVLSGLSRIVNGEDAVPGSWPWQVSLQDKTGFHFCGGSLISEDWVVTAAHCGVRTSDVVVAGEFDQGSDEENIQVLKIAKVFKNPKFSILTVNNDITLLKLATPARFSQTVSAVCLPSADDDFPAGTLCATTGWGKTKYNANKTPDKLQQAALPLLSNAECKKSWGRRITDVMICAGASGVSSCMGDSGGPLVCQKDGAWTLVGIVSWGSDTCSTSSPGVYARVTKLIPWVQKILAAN
# T6 sequence (P00742 41-179 limits assumed, chain 1 of 2): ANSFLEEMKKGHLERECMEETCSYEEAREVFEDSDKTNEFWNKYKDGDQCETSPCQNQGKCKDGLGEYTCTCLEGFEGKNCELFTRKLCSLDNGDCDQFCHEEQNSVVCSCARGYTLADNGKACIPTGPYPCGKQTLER
# T6 sequence (P00742 235-488 limits assumed, chain 2 of 2): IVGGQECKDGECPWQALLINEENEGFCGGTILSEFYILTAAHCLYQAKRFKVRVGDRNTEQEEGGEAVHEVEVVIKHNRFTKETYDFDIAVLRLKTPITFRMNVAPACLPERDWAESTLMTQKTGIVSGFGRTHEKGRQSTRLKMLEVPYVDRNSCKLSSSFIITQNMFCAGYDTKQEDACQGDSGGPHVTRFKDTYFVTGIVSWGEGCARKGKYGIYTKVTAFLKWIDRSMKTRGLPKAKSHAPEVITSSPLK
Binder,% inhibition at 100 µM [1] [%],% inhibition at 100 µM [2] [%],% inhibition at 100 µM [3] [%],% inhibition at 100 µM [4] [%],% inhibition at 100 µM [5] [%],"% inhibition at 100 µM (Chymase, from human skin) [%]",% inhibition at 100 µM [6] [%],% inhibition at 100 µM [7] [%]
"XCTASIPPQCY (HELM PEPTIDE1{[CCCCCCCC[C@H](N[*:1])C(=O)[*:2]].C.T.A.S.I.P.P.Q.C.Y.[dP].Q}$PEPTIDE1,PEPTIDE1,2:R3-10:R3|PEPTIDE1,PEPTIDE1,1:R1-13:R2$$$V2.0; SMILES CCCCCCCC[C@@H]1NC(=O)[C@H](CCC(N)=O)NC(=O)[C@H]2CCCN2C(=O)[C@H](Cc2ccc(O)cc2)NC(=O)[C@@H]2CSSC[C@H](NC1=O)C(=O)N[C@@H]([C@@H](C)O)C(=O)N[C@@H](C)C(=O)N[C@@H](CO)C(=O)N[C@@H]([C@@H](C)CC)C(=O)N1CCC[C@H]1C(=O)N1CCC[C@H]1C(=O)N[C@@H](CCC(N)=O)C(=O)N2, also called Ex. 177) [Example 177]",86,54,12,17,15,–,–,–
"cyclo([Gly(octyl)]CTAS[Cha]P[Pro(4NHCOPhe)]QCQ[dP]P) (disulfide 2-10; not fully specified; reading uncertain, also called Ex. 160) [Example 160]",94,55,14,23,30,–,–,–

# More lines, now with the values ahead:
% inhibition at 100 µM [1] [%],% inhibition at 100 µM [2] [%],% inhibition at 100 µM [3] [%],% inhibition at 100 µM [4] [%],% inhibition at 100 µM [5] [%],"% inhibition at 100 µM (Chymase, from human skin) [%]",% inhibition at 100 µM [6] [%],% inhibition at 100 µM [7] [%],Binder
84,56,16,16,–,0,11,–,"XCTASXPPQCQ (HELM PEPTIDE1{[O=C([C@H](CCc1ccccc1)N[*:1])[*:2]].C.T.A.S.[CCCCCCCC[C@H](N[*:1])C(=O)[*:2]].P.P.Q.C.Q.[dP].P}$PEPTIDE1,PEPTIDE1,2:R3-10:R3|PEPTIDE1,PEPTIDE1,1:R1-13:R2$$$V2.0; SMILES CCCCCCCC[C@@H]1NC(=O)[C@H](CO)NC(=O)[C@H](C)NC(=O)[C@H]([C@@H](C)O)NC(=O)[C@@H]2CSSC[C@H](NC(=O)[C@H](CCC(N)=O)NC(=O)[C@@H]3CCCN3C(=O)[C@@H]3CCCN3C1=O)C(=O)N[C@@H](CCC(N)=O)C(=O)N1CCC[C@@H]1C(=O)N1CCC[C@H]1C(=O)N[C@@H](CCc1ccccc1)C(=O)N2) [Example 153]"
83,52,12,19,30,–,–,18,"XCTASXPPQCF (HELM PEPTIDE1{[O=C([C@H](CCc1ccccc1)N[*:1])[*:2]].C.T.A.S.[Cha].P.P.Q.C.F.[dP].P}$PEPTIDE1,PEPTIDE1,2:R3-10:R3|PEPTIDE1,PEPTIDE1,1:R1-13:R2$$$V2.0; SMILES C[C@@H]1NC(=O)[C@H]([C@@H](C)O)NC(=O)[C@@H]2CSSC[C@H](NC(=O)[C@H](CCC(N)=O)NC(=O)[C@@H]3CCCN3C(=O)[C@@H]3CCCN3C(=O)[C@H](CC3CCCCC3)NC(=O)[C@H](CO)NC1=O)C(=O)N[C@@H](Cc1ccccc1)C(=O)N1CCC[C@@H]1C(=O)N1CCC[C@H]1C(=O)N[C@@H](CCc1ccccc1)C(=O)N2, also called Ex. 155) [Example 155]"
93,55,10,–,13,0,–,–,"XCTASXPPQCQ (HELM PEPTIDE1{[O=C([C@H](CCc1ccccc1)N[*:1])[*:2]].C.T.A.S.[Cha].P.P.Q.C.Q.[dP].P}$PEPTIDE1,PEPTIDE1,2:R3-10:R3|PEPTIDE1,PEPTIDE1,1:R1-13:R2$$$V2.0; SMILES C[C@@H]1NC(=O)[C@H]([C@@H](C)O)NC(=O)[C@@H]2CSSC[C@H](NC(=O)[C@H](CCC(N)=O)NC(=O)[C@@H]3CCCN3C(=O)[C@@H]3CCCN3C(=O)[C@H](CC3CCCCC3)NC(=O)[C@H](CO)NC1=O)C(=O)N[C@@H](CCC(N)=O)C(=O)N1CCC[C@@H]1C(=O)N1CCC[C@H]1C(=O)N[C@@H](CCc1ccccc1)C(=O)N2) [Example 158]"

# Source: patent publication US20140213531A1 (POLYPHOR, published 2014)
